Patent publication US20170305994A1 (Novo Nordisk, published 2017)

Assays:
[1] = target: T1, human DR3 with the death domain deleted (ΔM339-P417 of SEQ ID NO:1), expressed on CHOK1SV cells (human, UniProt Q93038 25-338); test: flow cytometry competition: Fab vs TL1A on hDR3-expressing CHO cells
T1 construct: also called truncated DR3; hDR3 expressing CHO cells
T1 sequence: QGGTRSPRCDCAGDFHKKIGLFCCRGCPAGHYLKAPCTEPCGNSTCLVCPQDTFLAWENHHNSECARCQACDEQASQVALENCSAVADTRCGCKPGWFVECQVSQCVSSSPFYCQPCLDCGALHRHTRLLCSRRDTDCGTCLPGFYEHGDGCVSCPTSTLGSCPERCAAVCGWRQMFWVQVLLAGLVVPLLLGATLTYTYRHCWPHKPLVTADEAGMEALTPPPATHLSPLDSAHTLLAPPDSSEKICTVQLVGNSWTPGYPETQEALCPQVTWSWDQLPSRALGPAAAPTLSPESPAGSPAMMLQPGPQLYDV

[2] = target: T1, human DR3 with the death domain deleted …; test: FACS on DR3 expressing cells; competitor Mab 0107
[3] = target: T2, DR3 (ECD)-Fc (human); test: HX-MS with hDR3 ECD-Fc
T2 construct: ECD of DR3, a linker with a TEV cleavage site and the Fc part of human IgG4; dimeric fraction used; also called DR3-Fc; hDR3-Fc
Method: The Leap robot was equipped with two temperature controlled stacks maintained at 20° C. for buffer storage and HX reactions and maintained at 2° C. for storage of protein and quench solution, respectively. The Waters HDX system furthermore contained a temperature controlled chamber holding the pre- and analytical columns, and the LC tubing and switching valves at 1° C. A separately temperature controlled chamber holds the pepsin column at 25° C. […] The resulting peptides were trapped and desalted on a VanGuard pre-column BEH C18 1.7 μm (2.1×5 mm (Waters Inc.)). Subsequently, the valves were switched to place the pre-column inline with the analytical column, UPLC-BEH C18 1.7 μm (1×100 mm (Waters Inc.)), and the peptides separated using a 9 min gradient of 10-40% B delivered at 200 μl/min from the nanoAQUITY UPLC system (Waters Inc.). The mobile phases consisted of A: 0.1% formic acid and B: 0.1% formic acid in CH₃CN. The ESI MS data, and the separate elevated energy (MS^E) experiments were acquired in positive ion mode using a Synapt G2 mass spectrometer (Waters Inc.).
All HX reactions were carried out at 20° C. and contained […] hDR3 in the absence or presence of […] Fab thus giving a 5 fold molar excess of Fab. […]

[4] = target: T3, human DR3 (full length, on cells) (human, UniProt Q93038 25-417); test: cell-based or functional assay
T3 sequence: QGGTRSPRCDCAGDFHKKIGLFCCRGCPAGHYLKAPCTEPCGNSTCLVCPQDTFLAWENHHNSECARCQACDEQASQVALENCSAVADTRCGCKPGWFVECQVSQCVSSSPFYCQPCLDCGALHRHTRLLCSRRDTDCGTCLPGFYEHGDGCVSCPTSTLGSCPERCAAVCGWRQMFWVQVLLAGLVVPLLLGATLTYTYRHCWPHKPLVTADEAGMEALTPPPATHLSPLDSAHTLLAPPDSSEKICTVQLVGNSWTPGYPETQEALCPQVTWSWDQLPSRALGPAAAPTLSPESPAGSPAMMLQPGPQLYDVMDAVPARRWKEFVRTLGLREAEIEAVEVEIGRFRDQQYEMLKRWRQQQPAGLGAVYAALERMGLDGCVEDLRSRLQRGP

[5] = target: T1, human DR3 with the death domain deleted …; test: FACS on DR3 expressing cells; competitor Mab 0121

binding result [3]: binds
max % inhibition of TNFalpha, donor 1 [4]: 9.5%
max % inhibition of TNFalpha, donor 2 [4]: -8.5%
B1: 0148 (chimeric Fab of 5F13, human IgG4 constant domain, hinge Cys->Ser) (Fab, V domains shown)
VH: EVQLVESGGGLVKPGGSLKFSCAVSGFTFSSYVMSWVRQTPEKRLEWVAAISSDSTYTYYLDSVKGRFTISRDNAKNTLYLQMSSLRSEDTAMYYCARQTRSDAMDYWGQGTSVTVSS
VL: DIVLTQSPASLAVSLGQRATISCRASESVDNYGNSFMHWYQQKPGQPPKLLIYRASNLESGIPARFSGSGSRTDFTLTINPVEADDVAIYYCQQSNEDPLTFGAGTKLELKR
notes: IgG4-Ser, chimeric
IC50 [1]: 9.22 nM
max percentage inhibition [1]: 33%
molar ratio Mab/Fab from which the Fab inhibits [2]: 100 Fab per Mab (molar ratio Mab/Fab 1:n)
molar ratio Mab/Fab from which the Fab inhibits fully [5]: 3 Fab per Mab (molar ratio Mab/Fab 1:n)
